Test results taken from PMC11413682.

B1: SARS-CoV-2 ORF10 N5 peptide [SARS-CoV-2] / CUL2^ZYG11B (residues 490–728) [human] (parent)
chain 1: GYINV
chain 2: ELFIVRQLLQIVKQKTNQNSVDTTLKFTLSALWNLTDESPTTCRHFIENQGLELFMRVLESFPTESSIQQKVLGLLNNIAEVQELHSELMWKDFIDHISSLLHSVEVEVSYFAAGIIAHLISRGEQAWTLSRSQRNSLLDDLHSAILKWPTPECEMVAYRSFNPFFPLLGCFTTPGVQLWAVWAMQHVCSKNPSRYCSMLIEEGGLQHLYNIKDHEHTDPHVQQIAVAILDSLEKHIVR

Variants of: B1
Test: ITC
Settings: with CUL2^ZYG11B (residues 490–728) [human]

How did the Kd turn out when chain 1 G1S was run?
Its Kd is 13.2 µM.
